Test results: patent US20240118272A1

Assays:
[1] = molecular target: CD9(FL)-ALP conjugate (human; bovine); assay: HI-1000 capture immunoassay; calibrator C3, 10.96 mU/L; run 3
[2] = molecular target: CD9(ECD)-ALP conjugate (human; bovine); assay: HI-1000 capture immunoassay; secondary calibrator C5; mean of 3 aliquots
[3] = molecular target: CD9(FL)-ALP conjugate (human; bovine); assay: HI-1000 capture immunoassay; calibrator C2, 5.48 mU/L; run 2
[4] = molecular target: CD9(FL)-ALP conjugate (human; bovine); assay: HI-1000 capture immunoassay; calibrator C1, 1.83 mU/L; run 3
[5] = molecular target: CD9(FL)-ALP conjugate (human; bovine); assay: HI-1000 capture immunoassay; calibrator C2, 3.7 ng/mL; run 2
[6] = molecular target: CD9(FL)-ALP conjugate (human; bovine); assay: HI-1000 capture immunoassay; calibrator C1, 1.0 ng/mL; run 1
[7] = molecular target: CD9(ECD)-ALP conjugate (human; bovine); assay: HI-1000 capture immunoassay; secondary calibrator C2, 3.84 U/L; run 2
[8] = molecular target: CD9(ECD)-ALP conjugate (human; bovine); assay: HI-1000 capture immunoassay; secondary calibrator C4, 129.62 U/L; run 2
[9] = molecular target: CD9(FL)-ALP conjugate (human; bovine); assay: HI-1000 capture immunoassay; calibrator C2, 5.48 mU/L; run 1
[10] = molecular target: CD9(FL)-ALP conjugate (human; bovine); assay: HI-1000 capture immunoassay; calibrator C4, 21.93 mU/L; run 3
[11] = molecular target: CD9(FL)-ALP conjugate (human; bovine); assay: HI-1000 capture immunoassay; calibrator C3, 7.4 ng/mL; mean of 3
[12] = molecular target: CD9(FL)-ALP conjugate (human; bovine); assay: HI-1000 capture immunoassay; calibrator C5, 30 ng/mL; run 1
[13] = molecular target: CD9(ECD)-ALP conjugate (human; bovine); assay: HI-1000 capture immunoassay; secondary calibrator C1; mean of 3 aliquots
[14] = molecular target: CD9(FL)-ALP conjugate (human; bovine); assay: HI-1000 capture immunoassay; calibrator C2, 3.7 ng/mL; run 3
[15] = molecular target: CD9(ECD)-ALP conjugate (human; bovine); assay: HI-1000 capture immunoassay; thawed aliquot 3 of secondary calibrator C2
[16] = molecular target: CD9(FL)-ALP conjugate (human; bovine); assay: HI-1000 capture immunoassay; calibrator C4, 21.93 mU/L; run 2
[17] = molecular target: CD9(FL)-ALP conjugate (human; bovine); assay: HI-1000 capture immunoassay; calibrator C3, 7.4 ng/mL; run 1
[18] = molecular target: CD9(ECD)-ALP conjugate (human; bovine); assay: HI-1000 capture immunoassay; primary calibrator C5, 159.87 ng/mL; run 3
[19] = molecular target: CD9(ECD)-ALP conjugate (human; bovine); assay: HI-1000 capture immunoassay; primary calibrator C5, 159.87 ng/mL; run 1
[20] = molecular target: CD9(ECD)-ALP conjugate (human; bovine); assay: HI-1000 capture immunoassay; secondary calibrator C2, 3.84 U/L; mean of 3
[21] = molecular target: CD9(ECD)-ALP conjugate (human; bovine); assay: HI-1000 capture immunoassay; secondary calibrator C3, 14.32 U/L; run 3
[22] = molecular target: CD9(ECD)-ALP conjugate (human; bovine); assay: HI-1000 capture immunoassay; primary calibrator C4, 50.05 ng/mL; run 2
[23] = molecular target: CD9(FL)-ALP conjugate (human; bovine); assay: HI-1000 capture immunoassay; calibrator C1, 1.83 mU/L; run 1
[24] = molecular target: CD9(FL)-ALP conjugate (human; bovine); assay: HI-1000 capture immunoassay; calibrator C1, 1.0 ng/mL; run 2
[25] = molecular target: CD9(ECD)-ALP conjugate (human; bovine); assay: HI-1000 capture immunoassay; primary calibrator C2, 4.89 ng/mL; mean of 3
[26] = molecular target: CD9(FL)-ALP conjugate (human; bovine); assay: HI-1000 capture immunoassay; calibrator C3, 10.96 mU/L; mean of 3
[27] = molecular target: CD9(ECD)-ALP conjugate (human; bovine); assay: HI-1000 capture immunoassay; secondary calibrator C5, 387.01 U/L; run 3
[28] = molecular target: CD9(ECD)-ALP conjugate (human; bovine); assay: HI-1000 capture immunoassay; primary calibrator C1, 1.52 ng/mL; mean of 3
[29] = molecular target: CD9(ECD)-ALP conjugate (human; bovine); assay: HI-1000 capture immunoassay; thawed aliquot 2 of secondary calibrator C2
[30] = molecular target: CD9(ECD)-ALP conjugate (human; bovine); assay: HI-1000 capture immunoassay; thawed aliquot 2 of secondary calibrator C1
[31] = molecular target: CD9(ECD)-ALP conjugate (human; bovine); assay: HI-1000 capture immunoassay; primary calibrator C1, 1.52 ng/mL; run 2
[32] = molecular target: CD9(FL)-ALP conjugate (human; bovine); assay: HI-1000 capture immunoassay; calibrator C4, 21.93 mU/L; run 1
[33] = molecular target: CD9(FL)-ALP conjugate (human; bovine); assay: HI-1000 capture immunoassay; calibrator C4, 15 ng/mL; run 3
[34] = molecular target: CD9(ECD)-ALP conjugate (human; bovine); assay: HI-1000 capture immunoassay; secondary calibrator C3; mean of 3 aliquots
[35] = molecular target: CD9(FL)-ALP conjugate (human; bovine); assay: HI-1000 capture immunoassay; calibrator C5, 43.86 mU/L; run 2
[36] = molecular target: CD9(ECD)-ALP conjugate (human; bovine); assay: HI-1000 capture immunoassay; thawed aliquot 1 of secondary calibrator C3
[37] = molecular target: CD9(ECD)-ALP conjugate (human; bovine); assay: HI-1000 capture immunoassay; primary calibrator C4, 50.05 ng/mL; run 1
[38] = molecular target: CD9(ECD)-ALP conjugate (human; bovine); assay: HI-1000 capture immunoassay; secondary calibrator C2; mean of 3 aliquots
[39] = molecular target: CD9(FL)-ALP conjugate (human; bovine); assay: HI-1000 capture immunoassay; calibrator C4, 21.93 mU/L; mean of 3
[40] = molecular target: CD9(FL)-ALP conjugate (human; bovine); assay: HI-1000 capture immunoassay; calibrator C5, 43.86 mU/L; mean of 3

CD9(ECD)-ALP conjugate (human; bovine), sequence (chain, as listed by the source, chain 1 of 2): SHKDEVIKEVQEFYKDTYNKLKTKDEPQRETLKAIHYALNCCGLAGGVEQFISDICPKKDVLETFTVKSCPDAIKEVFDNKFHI
CD9(ECD)-ALP conjugate (human; bovine), sequence (P19111 20-506, chain 2 of 2): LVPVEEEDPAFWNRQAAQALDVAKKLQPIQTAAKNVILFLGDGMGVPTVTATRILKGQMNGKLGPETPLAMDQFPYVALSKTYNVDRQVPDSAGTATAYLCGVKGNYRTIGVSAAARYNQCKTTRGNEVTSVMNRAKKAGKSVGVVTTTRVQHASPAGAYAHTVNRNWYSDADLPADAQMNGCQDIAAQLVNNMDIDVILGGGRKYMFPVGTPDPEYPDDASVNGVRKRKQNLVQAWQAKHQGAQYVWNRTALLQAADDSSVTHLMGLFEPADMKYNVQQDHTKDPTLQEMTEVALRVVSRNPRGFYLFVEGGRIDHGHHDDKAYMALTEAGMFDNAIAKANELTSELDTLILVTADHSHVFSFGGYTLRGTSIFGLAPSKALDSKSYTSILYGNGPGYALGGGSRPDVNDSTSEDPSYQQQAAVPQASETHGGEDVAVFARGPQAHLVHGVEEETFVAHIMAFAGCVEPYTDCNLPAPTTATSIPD
CD9(FL)-ALP conjugate (human; bovine), sequence (chain, as listed by the source, chain 1 of 2): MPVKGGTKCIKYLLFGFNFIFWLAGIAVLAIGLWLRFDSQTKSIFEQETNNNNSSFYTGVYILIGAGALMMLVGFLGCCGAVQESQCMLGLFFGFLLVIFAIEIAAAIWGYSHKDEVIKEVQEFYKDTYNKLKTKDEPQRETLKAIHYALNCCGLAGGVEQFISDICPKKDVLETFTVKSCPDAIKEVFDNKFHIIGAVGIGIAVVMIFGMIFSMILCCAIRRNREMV
CD9(FL)-ALP conjugate (human; bovine), sequence (P19111 20-506, chain 2 of 2): as the sequence (P19111 20-506, chain 2 of 2) above

Substance: anti-CD9 antibody (Clone: H19a)
- Count value [1]: 6810 count
- Count value (av) [2]: 36300 count
- Count value [3]: 3520 count
- Count value [4]: 1460 count
- Count value [5]: 8680 count
- Count value [6]: 1420 count
- Count value [7]: 2300 count
- Count value [8]: 69400 count
- Count value [9]: 3630 count
- Count value [10]: 13300 count
- Count value (av) [11]: 7020 count
- Count value [12]: 24600 count
- Count value (av) [13]: 811 count
- Count value [14]: 3800 count
- Count value [15]: 1520 count
- Count value [16]: 13200 count
- Count value [17]: 7040 count
- Count value [18]: 71600 count
- Count value [19]: 70400 count
- Count value (av) [20]: 2390 count
- Count value [21]: 8060 count
- Count value [22]: 21800 count
- Count value [23]: 1580 count
- Count value [24]: 1550 count
- Count value (av) [25]: 2560 count
- Count value (av) [26]: 6750 count
- Count value [27]: 209000 count
- Count value (av) [28]: 1100 count
- Count value [29]: 1580 count
- Count value [30]: 810 count
- Count value [31]: 1100 count
- Count value [32]: 13400 count
- Count value [33]: 13900 count
- Count value (av) [34]: 3900 count
- Count value [35]: 25600 count
- Count value [36]: 3830 count
- Count value [37]: 22400 count
- Count value (av) [38]: 1560 count
- Count value (av) [39]: 13300 count
- Count value (av) [40]: 26400 count
